The assay addresses human ACE2 extracellular domain (19-615) (human) (UniProt Q9BYF1). As to the kind of experiment: SPR. Background: In SPR one partner is held on a chip, and binding of the other changes the refractive index at the surface.

These results are taken from paper PMC7952905.

In general, Kd refers to the equilibrium constant for the complex coming apart. Higher therefore signals a looser complex.

Substance “RaTG13 RBD (333-526) (from UniProt A0ABF7PLN6 333-526) (domain or fragment; other documents disagree on this pair)” displayed a Kd of 0.5 µM.
